Experimental data taken from US20120178694A1 (University of Pennsylvania, published 2012).
Bridge positions count the residues as written; N and C are the ends. Square brackets hold non-standard residues; d marks the D form. NMeW = CN[C@@H](Cc1c[nH]c2ccccc12)C(=O)O; NMeH = CN[C@@H](Cc1c[nH]cn1)C(=O)O; NMeR = CN[C@@H](CCCNC(=N)N)C(=O)O; NMeC = CN[C@@H](CS)C(=O)O; Sar = CNCC(=O)O

Molecular target: C3 purified from fresh human plasma (human, UniProt P01024 23-1663)
Assay: cell-based or functional assay

C3 purified from fresh human plasma, sequence (P01024 23-1663): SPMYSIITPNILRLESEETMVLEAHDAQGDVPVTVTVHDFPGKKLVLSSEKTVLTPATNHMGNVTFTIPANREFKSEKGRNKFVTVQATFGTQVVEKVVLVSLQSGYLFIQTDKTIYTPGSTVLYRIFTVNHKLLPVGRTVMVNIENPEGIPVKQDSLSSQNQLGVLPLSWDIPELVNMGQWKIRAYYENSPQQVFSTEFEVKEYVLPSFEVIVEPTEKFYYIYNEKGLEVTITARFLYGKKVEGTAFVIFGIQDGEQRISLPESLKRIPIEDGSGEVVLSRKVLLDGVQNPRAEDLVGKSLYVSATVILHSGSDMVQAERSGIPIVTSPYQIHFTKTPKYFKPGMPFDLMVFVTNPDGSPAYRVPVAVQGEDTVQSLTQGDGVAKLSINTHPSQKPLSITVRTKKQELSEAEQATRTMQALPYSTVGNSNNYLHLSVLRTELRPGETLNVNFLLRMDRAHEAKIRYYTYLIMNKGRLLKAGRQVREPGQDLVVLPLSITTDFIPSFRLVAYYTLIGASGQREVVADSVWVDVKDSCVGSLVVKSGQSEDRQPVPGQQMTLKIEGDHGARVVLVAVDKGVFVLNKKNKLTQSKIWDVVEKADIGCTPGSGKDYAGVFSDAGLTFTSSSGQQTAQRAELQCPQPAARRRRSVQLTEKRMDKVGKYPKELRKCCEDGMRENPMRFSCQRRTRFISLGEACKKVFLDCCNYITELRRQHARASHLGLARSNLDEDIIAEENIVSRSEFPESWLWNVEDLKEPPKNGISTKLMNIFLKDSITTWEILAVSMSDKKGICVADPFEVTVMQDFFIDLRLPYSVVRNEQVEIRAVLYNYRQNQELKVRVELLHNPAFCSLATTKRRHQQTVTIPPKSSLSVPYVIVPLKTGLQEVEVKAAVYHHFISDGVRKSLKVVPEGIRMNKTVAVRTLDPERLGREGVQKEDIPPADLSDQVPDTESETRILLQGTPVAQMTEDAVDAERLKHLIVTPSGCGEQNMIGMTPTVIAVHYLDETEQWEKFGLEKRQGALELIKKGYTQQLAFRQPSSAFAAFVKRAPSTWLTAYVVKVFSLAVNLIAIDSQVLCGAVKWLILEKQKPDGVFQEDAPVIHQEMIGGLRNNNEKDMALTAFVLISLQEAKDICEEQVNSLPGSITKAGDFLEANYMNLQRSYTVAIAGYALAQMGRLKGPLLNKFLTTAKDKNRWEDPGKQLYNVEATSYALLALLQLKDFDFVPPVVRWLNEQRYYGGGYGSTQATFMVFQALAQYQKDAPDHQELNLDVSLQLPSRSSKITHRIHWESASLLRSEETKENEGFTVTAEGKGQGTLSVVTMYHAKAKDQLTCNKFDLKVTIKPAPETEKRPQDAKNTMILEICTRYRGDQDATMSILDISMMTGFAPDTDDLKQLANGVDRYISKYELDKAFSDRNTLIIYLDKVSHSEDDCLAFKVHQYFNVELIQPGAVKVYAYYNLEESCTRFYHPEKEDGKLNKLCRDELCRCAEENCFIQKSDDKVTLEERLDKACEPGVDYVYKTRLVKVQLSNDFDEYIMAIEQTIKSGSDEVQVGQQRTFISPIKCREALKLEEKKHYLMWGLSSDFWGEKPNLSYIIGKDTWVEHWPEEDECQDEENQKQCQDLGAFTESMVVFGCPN

IC50 (CP), inhibition of classical pathway complement activation, ELISA [µM] | IC50-fold change relative to peptide 1 [fold] | Binder
94 | 0.03 | Ac-ICVYQDWGA[NMeH]RCT-NH2 (disulfide 2-12; SMILES CC[C@H](C)[C@H](NC(C)=O)C(=O)N[C@H]1CSSC[C@@H](C(=O)N[C@H](C(N)=O)[C@@H](C)O)NC(=O)[C@H](CCCNC(=N)N)NC(=O)[C@H](Cc2c[nH]cn2)N(C)C(=O)[C@H](C)NC(=O)CNC(=O)[C@H](Cc2c[nH]c3ccccc23)NC(=O)[C@H](CC(=O)O)NC(=O)[C@H](CCC(N)=O)NC(=O)[C@H](Cc2ccc(O)cc2)NC(=O)[C@H](C(C)C)NC1=O) [Ac-I[CVYQDWGA(NMe)HRC]T-NH2]
1.43 | 1.7 | Ac-ICVYQDW[Sar]AHRCT-NH2 (disulfide 2-12; SMILES CC[C@H](C)[C@H](NC(C)=O)C(=O)N[C@H]1CSSC[C@@H](C(=O)N[C@H](C(N)=O)[C@@H](C)O)NC(=O)[C@H](CCCNC(=N)N)NC(=O)[C@H](Cc2c[nH]cn2)NC(=O)[C@H](C)NC(=O)CN(C)C(=O)[C@H](Cc2c[nH]c3ccccc23)NC(=O)[C@H](CC(=O)O)NC(=O)[C@H](CCC(N)=O)NC(=O)[C@H](Cc2ccc(O)cc2)NC(=O)[C@H](C(C)C)NC1=O) [Ac-I[CVYQDW(NMe)GAHRC]T-NH2]
7.5 | 0.3 | Ac-I[NMeC]VYQDWGAHRCT-NH2 (disulfide 2-12; SMILES CC[C@H](C)[C@H](NC(C)=O)C(=O)N(C)[C@H]1CSSC[C@@H](C(=O)N[C@H](C(N)=O)[C@@H](C)O)NC(=O)[C@H](CCCNC(=N)N)NC(=O)[C@H](Cc2c[nH]cn2)NC(=O)[C@H](C)NC(=O)CNC(=O)[C@H](Cc2c[nH]c3ccccc23)NC(=O)[C@H](CC(=O)O)NC(=O)[C@H](CCC(N)=O)NC(=O)[C@H](Cc2ccc(O)cc2)NC(=O)[C@H](C(C)C)NC1=O) [Ac-I[(NMe)CVYQDWGAHRC]T-NH2]
25 | 0.1 | Ac-ICVYQD[NMeW]GAHRCT-NH2 (disulfide 2-12; SMILES CC[C@H](C)[C@H](NC(C)=O)C(=O)N[C@H]1CSSC[C@@H](C(=O)N[C@H](C(N)=O)[C@@H](C)O)NC(=O)[C@H](CCCNC(=N)N)NC(=O)[C@H](Cc2c[nH]cn2)NC(=O)[C@H](C)NC(=O)CNC(=O)[C@H](Cc2c[nH]c3ccccc23)N(C)C(=O)[C@H](CC(=O)O)NC(=O)[C@H](CCC(N)=O)NC(=O)[C@H](Cc2ccc(O)cc2)NC(=O)[C@H](C(C)C)NC1=O) [Ac-I[CVYQD(NMe)WGAHRC]T-NH2]
154 | 0.02 | Ac-ICVYQDWGAHR[NMeC]T-NH2 (disulfide 2-12; SMILES CC[C@H](C)[C@H](NC(C)=O)C(=O)N[C@H]1CSSC[C@@H](C(=O)N[C@H](C(N)=O)[C@@H](C)O)N(C)C(=O)[C@H](CCCNC(=N)N)NC(=O)[C@H](Cc2c[nH]cn2)NC(=O)[C@H](C)NC(=O)CNC(=O)[C@H](Cc2c[nH]c3ccccc23)NC(=O)[C@H](CC(=O)O)NC(=O)[C@H](CCC(N)=O)NC(=O)[C@H](Cc2ccc(O)cc2)NC(=O)[C@H](C(C)C)NC1=O) [Ac-I[CVYQDWGAHR(NMe)C]T-NH2]
32 | 0.08 | Ac-ICVYQDWGAH[NMeR]CT-NH2 (disulfide 2-12; SMILES CC[C@H](C)[C@H](NC(C)=O)C(=O)N[C@H]1CSSC[C@@H](C(=O)N[C@H](C(N)=O)[C@@H](C)O)NC(=O)[C@H](CCCNC(=N)N)N(C)C(=O)[C@H](Cc2c[nH]cn2)NC(=O)[C@H](C)NC(=O)CNC(=O)[C@H](Cc2c[nH]c3ccccc23)NC(=O)[C@H](CC(=O)O)NC(=O)[C@H](CCC(N)=O)NC(=O)[C@H](Cc2ccc(O)cc2)NC(=O)[C@H](C(C)C)NC1=O) [Ac-I[CVYQDWGAH(NMe)RC]T-NH2]
